How the values were obtained:
[1] = target: T1, EGFR on A431 epidermoid carcinoma cells (human, UniProt P00533 25-1210); experiment: cell-based or functional assay
[2] = target: T1, EGFR on A431 epidermoid carcinoma cells; experiment: cell-based or functional assay; remark: listed apart in the source
[3] = target: T2, human monomeric EGFR (EGFR.mmh) (human, UniProt P00533 25-647); experiment: SPR 37C, mAb captured by anti-human Fc, EGFR.mmh analyte
T2 construct: Soluble monomeric EGFR construct
Protocol: (§1) Different concentrations of human monomeric (EGFR.mmh; SEQ ID NO:386) and dimeric (EGFR.mFc; SEQ ID NO:387) proteins were injected over the anti-EGFR monoclonal antibody captured surface at a flow rate of 50 μI/min. Antibody-antigen association was monitored for 4-5 minutes while dissociation of antigen from the captured monoclonal antibody surface was monitored for 10 min. Kinetic association (kₐ) and dissociation (kd) rate constants were determined by processing and fitting the data to a 1:1 binding model using Scrubber 2.0 curve fitting software.

[4] = target: T3, human dimeric EGFR (EGFR.mFc) (human); experiment: SPR 37C, mAb captured by anti-human Fc, EGFR.mFc analyte
T3 construct: Soluble dimeric EGFR construct
Protocol: as §1

| Binder | ADCC EC50 [1] [Molar] | Maximum Cell Killing (%) [1] [%] | IC50 of A431 Proliferation [2] [Molar] | Kd [3] [nM] | koff [3] [s⁻¹] | kon [3] [M⁻¹ s⁻¹] | t1/2 [3] [min] | Kd [4] [nM] | koff [4] [s⁻¹] | kon [4] [M⁻¹ s⁻¹] | t1/2 [4] [min] | binding result [3] | binding result [4] |
| --- | --- | --- | --- | --- | --- | --- | --- | --- | --- | --- | --- | --- | --- |
| H1H0085N (antibody, V domains shown, Tested in human IgG1 Fc format (H1H prefix); first obtained as H1M (mouse IgG1 Fc) from a hybridoma; also called H1M085N; H1H085N) VH: EVQLVESGGGLVQPGRSLRLSCAASGFTFDDYAMHWVRQAPGKGLEWVSGINWNSDKIAYADSVKGRFTISRDNAENSLFLQMNSLRPEDTALYYCVKRGDFWTEYYDYWGQGTLVTVSS VL: DIVMTQSPLSLPVTPGEPASISCRSSQSLLHSNGYNYLDWYLQKPGQSPHLLIYLVSTRASGVPDRFSGSGSGTDFTLKISRVEAEDVGVYYCIQALQTPWTFGQGTKVEIK | 3.7e-13 | 35 | 1.65e-09 | 15.5 | 0.00185 | 119000 | 6 | 0.12 | 4.05e-05 | 336000 | 286 | – | – |
| H1H086N (antibody, human IgG1, V domains shown, Tested in human IgG1 Fc format (H1H); also called H1M086N) VH: EVQLVESGGGLVQPGRSLRLSCAASGFTFDDYAMHWVRQAPGKGLEWVSGINWNSDKIAYADSVKGRFTISRDNAENSLFLQMNSLRPEDTALYYCVKRGDFWTDYYDYWGQGTLVTVSS VL: DIVMTQSPLSLPVTPGEPASISCRSSQSLLHSNGYNYLDWYLQKPGQSPHLLIYLVSTRASGVPDRFSGSGSGTDFTLKISRVEAEDVGVYYCMQALQTPWTFGQGTKVEIK | 2.91e-13 | 25 | 5.46e-10 | 1.31 | 0.000708 | 540000 | 16 | 0.00598 | 1.13e-05 | 1.9e+06 | 1020 | – | – |
| H1H151P (antibody, human IgG1, V domains shown, Human IgG1 Fc (H1H)) VH: QVQLQESGPGLVNPSQTLSLTCTVSGGSINSGDYYWSWVRQHPGKGLEWIGYIYYSGSTYYNPSLKSRVTISVDTSKNQFSLKLSSVTVADTAVYYCARVGYSKGYFDSWGQGTLVTVSS VL: DIQMTQSPSTLSASVGDRVTITCRASESISSWLAWYQQKPGKAPKVLIYDASSLESGVPSRFSGSGSGTEYTLTISSLQPDDFASYYCQQYKSYWTFGQGTKVEIK | 5.48e-09 | 68 | 2.77e-10 | 8.4 | 0.00113 | 134000 | 10 | – | – | – | – | – | – |
| H1H136P (antibody, human IgG1, V domains shown, Human IgG1 Fc (H1H)) VH: EVQLVESGGGLVQPGGSLRLSCAASGFTFSSYDMSWVRQAPGKGLEWVSGISGSGDSTYYAGSVKGRFTISRDNSKNTLYLQMNSLRAEDTAVYYCAYDYSNYWDHYGMDVWGQGTTVTVSS VL: not shown | 1.49e-09 | 27 | – | – | – | – | – | – | – | – | – | no binding | no binding |
| H1H145P (antibody, human IgG1, V domains shown, Human IgG1 Fc (H1H)) VH: EVQLVESGGGVVQPGGSLRLSCAASGFTFDDYAMHWVRQAPGKGLEWVSLISGDGGSTYYADSVKGRFTISRDNSKNSLYLQMNSLRTEDTALYYCAKNYDSSGYYYPYYYYYGMDVWGQGTTVTVSS VL: not shown | – | 0 | – | 1.43 | 0.000195 | 137000 | 59 | 0.232 | 5.86e-05 | 252000 | 197 | – | – |
| H1H153P (antibody, human IgG1, V domains shown, Human IgG1 Fc (H1H)) VH: QVQLVESGGGVVQPGKSLRLSCAASGFTFSIYGMNWVRQAPGKGLDWVAVISDDGSNKDYVDSVRGRFTISRDNSKNTLYLQMNSLSAEDTAVYYCAKDRITGTHYYGLDVWGQGTTVTVSS VL: DIQMTQSPSSLSASVGDRITITCRASQDIANYLAWFQQKPGNAPTSLIYAASILQSGVPSKFSGSGSGTDFTLTITSLQPEDFASYYCQQYNRKPWTFGRGTKVEIK | 2.65e-11 | 31 | – | 3.09 | 0.000235 | 76100 | 49 | 0.0351 | 8.23e-06 | 234000 | 1400 | – | – |
| H1H171P (antibody, human IgG1, V domains shown, Human IgG1 Fc (H1H)) VH: QVQLVESGGGVVQPGRSLRLSCAASGFTFSIYGMNWVRQGPGKGLDWVAVISDDGSNKDYVDSVRGRFTISRDNSKNTLYLQMNSLSAEDTAVYYCAKDRITGTHYYGMDVWGQGTTVTVSS VL: DIQMTQSPSSLSASVGDRITITCRASQDIANYLAWFQQKPGNAPTSLIYAASILQSGVPSKFSGSGSGTDFTLTITSLQPEDFASYYCQQYNRKPWTFGRGTKVEIK | 8.94e-13 | 27 | – | 14.2 | 0.00113 | 79400 | 10 | 0.103 | 3.48e-05 | 339000 | 332 | – | – |
